One molecule from PMC8863163 (Research Square, 2022) can be followed below.

In this test the target is T1, SARS-CoV-2 nsp12 (RNA-dependent RNA polymerase with N-terminal NiRAN domain) (SARS-CoV-2, UniProt P0DTD1).
T1 construct: also called RdRp; WT nsp12
Description: cryo-EM structure. The settings on record: both partners purified.

B1: SARS-CoV-2 nsp9 with native N-terminus (natural protein)
chain: NNELSPVALRQMSCAAGTTQTACTDDNALAYYNTTKGGRFVLALLSDLQDLKWARFPKSDGTGTIYTELEPPCRFVTDTPKGPKVKYLYFIKGLNNLNRGMVLGSLAATVRLQ
notes: also called native nsp9
In the case of B1, the binding result was “binds”.
